This is an account of results in article PMC12905490, “Identification and functional characterization of two CXCL17 paralogs from zebrafish” (Biochemical Journal, 2026).

In assay [1] the target is sLgBiT-Dr-GPR25 (zebrafish (Danio rerio)). The assay is described as follows: split reporter (BiFC, NanoBiT); NanoBiT-based competition binding: constant 6 × His-SmBiT-Dr-CXCL17-like tracer and varied competitors on living HEK293T cells expressing sLgBiT-Dr-GPR25; serum-free DMEM, 0.1% BSA, 0.01% Tween-20, room temperature ~1 h.
Assay [2] concerns the target T1, sLgBiT-Dr-GPR25 (zebrafish (Danio rerio), UniProt A0AC58GT18 1-377).
T1 construct: G protein-coupled receptor 25 (GPR25), zebrafish (Danio rerio); In one experiment it was coexpressed with human TPST1 and TPST2; sulfation of the N-terminal tyrosines is only called potential; The chemotaxis assays used untagged Dr-GPR25 (PB-TRE/Dr-GPR25); also called N-terminally secretory LgBiT-fused Dr-GPR25; zebrafish GPR25; source: HEK293T, transfected (PB-TRE/sLgBiT-Dr-GPR25), Dox-induced, …
T1 sequence (looked up): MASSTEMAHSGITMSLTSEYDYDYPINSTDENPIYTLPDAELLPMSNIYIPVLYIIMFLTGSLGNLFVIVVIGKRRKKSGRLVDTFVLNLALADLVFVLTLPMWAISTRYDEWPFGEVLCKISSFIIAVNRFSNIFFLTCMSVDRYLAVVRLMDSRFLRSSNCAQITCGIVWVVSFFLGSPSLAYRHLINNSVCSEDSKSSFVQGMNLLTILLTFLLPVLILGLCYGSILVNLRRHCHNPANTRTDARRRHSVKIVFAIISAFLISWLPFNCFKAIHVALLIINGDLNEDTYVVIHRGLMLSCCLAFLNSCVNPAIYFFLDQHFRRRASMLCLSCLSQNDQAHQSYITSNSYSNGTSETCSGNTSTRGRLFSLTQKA
The assay is described as follows: split reporter (BiFC, NanoBiT); NanoBiT-based homogeneous saturation binding: varied 6 × His-SmBiT-Dr-CXCL17-like on living HEK293T cells overexpressing sLgBiT-Dr-GPR25, without coexpression of TPST1 and TPST2; serum-free DMEM, 0.1% BSA, 0.01% Tween-20, room temperature ~1 h; non-specific binding with 1.0 μM unlabeled 6 × His-Dr-CXCL17-like. As to conditions: one partner purified.

Assay [3] deals with T1, sLgBiT-Dr-GPR25. The assay is described as follows: split reporter (BiFC, NanoBiT); NanoBiT-based homogeneous saturation binding as before, but sLgBiT-Dr-GPR25 coexpressed with human TPST1 and TPST2 in HEK293T cells; serum-free DMEM, 0.1% BSA, 0.01% Tween-20, room temperature ~1 h. As to conditions: one partner purified.
In assay [4] the target is T1, sLgBiT-Dr-GPR25. The experiment in a line: split reporter (BiFC, NanoBiT); NanoBiT-based competition binding: constant 6 × His-SmBiT-Dr-CXCL17-like tracer and varied competitors on living HEK293T cells expressing sLgBiT-Dr-GPR25; serum-free DMEM, 0.1% BSA, 0.01% Tween-20, room temperature ~1 h. As to conditions: one partner purified.

As for 6 × His-Dr-CXCL17 (ligand), the IC50 in assay [1] was found to be 380 nM.

B1: 6 × His-SmBiT-Dr-CXCL17-like (ligand, zebrafish (Danio rerio), UniProt A0AB13AB19 26-95, looked up)
chain: QRRSMKQSAVCGCKLYPDKGLKCTKRPNPKSRDEYYEILKCICRDTQIFSKSSRKEYLKRCNKFYPSLPL
notes: Dr-CXCL17-like, zebrafish (Danio rerio, Tübingen strain), mature peptide of 70 amino acids (residues 26-95 of the 95-residue precursor; predicted signal peptide of 25 residues left out); also called tracer; SmBiT-tagged tracer; not shown: His6, N-terminal, kept; SmBiT, N-terminal, kept
In the case of B1, the results for the Kd with sLgBiT-Dr-GPR25 [2] and in the assay with sLgBiT-Dr-GPR25 [3] were 7.5 nM and 7.1 ± 0.9 nM, respectively.

B2: 6 × His-Dr-CXCL17-like (ligand, zebrafish (Danio rerio), UniProt A0AB13AB19 26-95, looked up)
chain: QRRSMKQSAVCGCKLYPDKGLKCTKRPNPKSRDEYYEILKCICRDTQIFSKSSRKEYLKRCNKFYPSLPL
notes: Dr-CXCL17-like, zebrafish (Danio rerio, Tübingen strain), mature peptide of 70 amino acids (residues 26-95 of the 95-residue precursor; predicted signal peptide of 25 residues left out); also called zebrafish CXCL17-like; A0AB13AB19; not shown: His6, N-terminal, kept
B2 yielded an IC50 with sLgBiT-Dr-GPR25 [4] of approximately 13 nM.

B3: 6 × His-Hs-CXCL17 (ligand, human, UniProt Q6UXB2 22-119, looked up)
chain: SSLNPGVARGHRDRGQASRRWLQEGGQECECKDWFLRAPRRKFMTVSGLPKKQCPCDHFKGNVKKTRHQRHHRKPNKHSRACQQFLKQCQLRSFALPL
notes: C-X-C motif chemokine ligand 17 (CXCL17), human; likely the mature peptide with an N-terminal 6 × His tag, as for the zebrafish proteins (surmised); also called Recombinant human CXCL17; source: recombinant
B3 came in with an IC50 in the assay with sLgBiT-Dr-GPR25 [4] of approximately 230 nM.
